Consider 5 molecules from patent US20100221257A1 (AstraZeneca / MedImmune, published 2010).

Assay [1] addresses Antibody 6 (Eu3+ cryptate labelled, Example 5). Put plainly: HTRF competition assay, against human IL-1R1 as reference. As to the method: (§1) Antibody was cryptate labelled with Eu³′ Cryptate labelling kit according to the manufacturer's instructions (CisBio International Cat No. 62EUSPEA) and IL-1R1/Fc (SEQ ID NO: 134, see Material and Methods) was Biotin labelled with EZ Link Sulfo-NHS-Biotin (Perbio Cat No. 21335) according to the manufacturer's instructions. Assay conditions were 0.25 nM Cryptate labelled antibody, 0.3 nM biotin labelled IL-1R1/Fc, 2.5 nM streptavidin XL^{ent!} (CisBio International Cat. No. 611SAXLB) in 1×D-PBS, 0.1% BSA, 0.4M potassium fluoride in a total volume of […] in a 384 well shallow well costar plate (3676). To the assay a dilution series (from maximum of 100 nM to 0.0017 nM) of test proteins was added and the assay incubated for 3 hours at room temperature. FRET signal was detected using a PerkinElmer EnVision plate reader using a 320 nm excitation filter and 620 nm and 665 nm emission filters. Results were calculated from the 665/620 ratio as a percentage of specific binding (signal with no competitor antigen). Results were analysed with Prism (GraphPad Software) using the sigmoidal dose response model.
Antibody binding of chimeric molecules was tested in an HTRF (Homogeneous Time Resolved Fluorescence) competition assay. […] From inhibition curves IC₅₀ values for human IL-1R1, mouse IL-1R1 and chimeric molecules were calculated (Table 12). […]
A general note: Time-resolved FRET reads energy transfer from a long-lived donor to a nearby acceptor.

Assay [2] shares this target. Description: HTRF competition: unlabelled test protein against biotin labelled human IL-1R1/Fc binding to cryptate labelled antibody. As to the method: as §1
Antibody binding of chimeric molecules was tested in an HTRF (Homogeneous Time Resolved Fluorescence) competition assay. Molecules which bound antibody at the same paratope as human IL-1R1 inhibited the binding interaction, leading to a reduction in signal. From inhibition curves IC₅₀ values for human IL-1R1, mouse IL-1R1 and chimeric molecules were calculated (Table 12). […] Chimeras that gave similar IC₅₀ values to native human IL-1R1 still contained the epitope.

Assay [3] addresses T1, cynomolgus monkey HIS IL1RFc (cynomolgus monkey).
T1 construct: also called Cyno his IL1RFc; CynoIL1-R1-Fc
Put plainly: KinExA, FAb equilibrated in solution with IL-1R1-Fc; free FAb captured on IL-1R1 beads. As to the method: (§2) Firstly either a monomerised FAb was allowed to come to equilibrium with sIL-1R1-Fc (soluble sIL-1R1-Fc), or the IgG was allowed to come to equilibrium with sIL-1R1 (un-tagged). These equilibrated solutions of the interacting molecules were then analysed using KinExA™. 3200 technology. In brief, for each equilibrated sample, the KinExA™. 3200 instrument automatically packed a fresh column of sIL-1R1 conjugated micro-beads. The sample containing antibody (or FAb fragment), antigen, and Ab/antigen (or FAb/antigen) complex (in Dulbecco's PBS, 1 mg mL⁻¹ bovine serum albumin, 0.02% (w/v) sodium azide) was flowed rapidly (0.25 mL/min) through the column to keep the contact time of the sample with the antigen-beads extremely brief. This rapid contact time ensured that, for high affinity (slowly dissociating) interactions, dissociation of the complex was negligible during this short contact time. Free antibody bound to the IL-1R1-beads. A Cy5™ (cyanine) fluorescently labelled secondary antibody, mouse anti-human IgG (heavy and light chain specific) was then passed through the column. Labelled secondary antibody bound to the antibody bound to the column. A buffer wash removed excess label, leaving fluorescence signal on the bead column directly proportional to the amount of free […] in the original sample. […]
Background: Kinetic exclusion samples the free partner from a solution-phase mixture.

In assay [4] the target is T2, human histidine tagged (HIS) IL1RFc fusion protein (human).
T2 construct: Biotinylated or cryptate labelled in some assays; also called human HIS IL1RFc; huIL-1R1-Fc
The assay is described as above. As to the method:
as §2

Assay [5] concerns the target T3, human IL-1R1, endogenous on human cells (HeLa cells; whole blood) (human, UniProt P14778 18-569).
T3 sequence (looked up): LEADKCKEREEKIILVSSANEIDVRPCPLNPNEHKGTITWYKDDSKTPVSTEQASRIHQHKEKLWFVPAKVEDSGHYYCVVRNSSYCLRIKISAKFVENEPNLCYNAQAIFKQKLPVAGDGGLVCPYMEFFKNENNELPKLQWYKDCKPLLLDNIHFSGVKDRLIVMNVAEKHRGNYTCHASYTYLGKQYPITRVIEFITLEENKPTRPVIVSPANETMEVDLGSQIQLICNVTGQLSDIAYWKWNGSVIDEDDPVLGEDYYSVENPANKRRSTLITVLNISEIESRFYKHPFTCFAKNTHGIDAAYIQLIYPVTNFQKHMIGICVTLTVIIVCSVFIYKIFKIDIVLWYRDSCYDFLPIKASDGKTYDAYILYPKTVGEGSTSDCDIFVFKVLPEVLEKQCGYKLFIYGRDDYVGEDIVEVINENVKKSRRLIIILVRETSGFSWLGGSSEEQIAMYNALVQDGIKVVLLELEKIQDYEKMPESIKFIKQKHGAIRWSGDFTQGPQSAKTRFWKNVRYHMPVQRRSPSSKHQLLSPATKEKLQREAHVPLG
Description: cell-based or functional assay.

Assay [6] deals with T4, Human sIL-1R1 (R&D Systems), un-tagged (human, UniProt P14778 18-332, limits assumed).
T4 construct: Bought; also called soluble human IL-1R1
T4 sequence (looked up): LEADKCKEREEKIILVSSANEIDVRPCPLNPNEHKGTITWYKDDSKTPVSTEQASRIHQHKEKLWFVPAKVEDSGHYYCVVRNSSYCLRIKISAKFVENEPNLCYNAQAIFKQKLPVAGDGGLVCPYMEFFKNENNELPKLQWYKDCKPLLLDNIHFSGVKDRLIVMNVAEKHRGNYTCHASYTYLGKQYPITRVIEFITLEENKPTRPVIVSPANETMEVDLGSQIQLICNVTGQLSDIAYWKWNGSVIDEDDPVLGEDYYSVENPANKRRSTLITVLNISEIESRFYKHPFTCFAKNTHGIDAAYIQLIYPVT
Description: KinExA, IgG equilibrated in solution with un-tagged sIL-1R1; free IgG captured on IL-1R1 beads. As to the method:
as §2

Assay [7] addresses T2, human histidine tagged (HIS) IL1RFc …. Put plainly: HTRF receptor-ligand assay, scFv inhibiting HIS FLAG IL-1β binding to human HIS IL1RFc. As to the method:
(§3) After pre-incubation of the assay plates, 5 μl of 4 nM HIS FLAG IL1 beta was added. This was followed by 5 μl of 20 nM anti-FLAG IgG labelled with XL665 (CIS Bio international 61FG2XLB) and 5 μl of 3.2 nM anti-human Fc IgG labelled with cryptate (CIS Bio International 61HFCKLB). All dilutions were performed in phosphate buffered saline (PBS) containing 0.4 M potassium fluoride and 0.1% BSA (assay buffer).
(§4) Purified scFv from positive clones identified from screening were tested in either of the above receptor-ligand HTRF® assays for inhibition of binding of human HIS FLAG tagged IL1 beta to human HIS IL1RFc. A skilled person could modify these assays to test IgG or other inhibitor formats. A titration of scFv concentrations was used in order to establish the clone potency as measured by IC₅₀ values in the assay. All dilutions were carried out in assay buffer. 5 μl of a titration of purified scFv sample was added to a 384 well low volume assay plate (Costar 3676). This was then followed by addition of 2 nM human HIS IL1RFc (when using in house HIS IL1 beta) or 8 nM HIS IL1RFc (when using Alexis source IL1 beta) to a volume of 20 μl. Assay plates were then sealed and incubated at room temperature in dark for 1 hour. The subsequent addition steps were carried out as exactly as described for crude scFv containing periplasmic extracts.

Assay [8] has the same target. Put plainly: HTRF receptor-ligand assay, scFv inhibiting HIS FLAG IL-1β binding to human HIS IL1RFc; incomplete inhibition curve, value estimated; incomplete inhibition curve; IC50 estimated. As to the method:
as §3, §4

T1 sequence (chain, as listed by the source limits assumed): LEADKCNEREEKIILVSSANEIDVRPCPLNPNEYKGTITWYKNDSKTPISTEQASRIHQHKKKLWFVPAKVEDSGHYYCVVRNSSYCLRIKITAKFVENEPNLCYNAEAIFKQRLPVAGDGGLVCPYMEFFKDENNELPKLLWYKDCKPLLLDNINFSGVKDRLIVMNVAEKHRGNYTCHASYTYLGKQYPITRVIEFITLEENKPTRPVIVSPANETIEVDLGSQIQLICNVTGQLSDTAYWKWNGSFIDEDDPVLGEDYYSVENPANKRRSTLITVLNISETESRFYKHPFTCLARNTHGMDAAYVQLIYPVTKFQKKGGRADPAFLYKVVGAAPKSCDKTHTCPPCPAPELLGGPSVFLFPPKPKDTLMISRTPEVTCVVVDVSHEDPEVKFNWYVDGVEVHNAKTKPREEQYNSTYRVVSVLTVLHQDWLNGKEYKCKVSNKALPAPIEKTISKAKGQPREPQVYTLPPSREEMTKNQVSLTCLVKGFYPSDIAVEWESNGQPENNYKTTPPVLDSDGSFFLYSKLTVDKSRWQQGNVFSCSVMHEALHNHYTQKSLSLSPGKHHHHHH

B1: MoD2a IL1R1 (Fc fusion, human;mouse, UniProt P14778 18-122, looked up, not shown: a dimerising Fc or GST)
chain: LEADKCKEREEKIILVSSANEIDVRPCPLNPNEHKGTITWYKDDSKTPVSTEQASRIHQHKEKLWFVPAKVEDSGHYYCVVRNSSYCLRIKISAKFVENEPNLCYSTQATFPQRLHIAGDGGLVCPYMEFFKNENNELPKLQWYKDCKPLLLDNIHFSGVKDRLIVMNVAEKHRGNYTCHASYTYLGKQYPITRVIEFITLEENKPTRPVIVSPANETMEVDLGSQIQLICNVTGQLSDIAYWKWNGSVIDEDDPVLGEDYYSVENPANKRRSTLITVLNISEIESRFYKHPFTCFAKNTHGIDAAYIQLIYPVTNFQK
notes: range 1-122;range 126-137;range 135-336; also called chimera without human beta strand a2
With B1, the “fold higher IC50 than human IL1R1” value in assay [1] came out at 26 fold. In addition, the half-inhibitory concentration (IC50) – broadly, the midpoint of a concentration-inhibition curve – in assay [2] was 4.6 nM.

B2: Antibody 6 FAb (Fab, V domains shown)
VH: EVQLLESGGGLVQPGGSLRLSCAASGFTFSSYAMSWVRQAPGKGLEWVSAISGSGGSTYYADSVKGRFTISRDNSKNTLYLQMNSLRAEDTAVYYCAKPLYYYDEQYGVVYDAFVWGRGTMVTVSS
VL: QSVLTQPPSVSGAPGQRVTISCTGSSSNIGAGYDVHWYQQLPGTAPKLLIYGDTHRPSGVPDRFSGSKSGTSASLVIAGLQAEDEADYYCQSYDTVRLHHVFGGGTKLTVL
notes: Monomeric FAb made by papain digestion of Antibody 6 IgG1TM; also called anti-IL-1R1FAb; monomerised FAb
Take B2: the dissociation constant Kd (commonly the constant that tells how readily two partners part at equilibrium) came to 2.8 pM in assay [3] and 2.5 pM in assay [4].

B3: Antibody 6 IgG1TM (Triple Mutant, 234F, 235E and 331S) (antibody, V domains shown)
VH: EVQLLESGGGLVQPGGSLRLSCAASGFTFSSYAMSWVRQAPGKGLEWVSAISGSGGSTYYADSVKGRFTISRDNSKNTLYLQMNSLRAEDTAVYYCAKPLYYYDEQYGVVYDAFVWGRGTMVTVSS
VL: QSVLTQPPSVSGAPGQRVTISCTGSSSNIGAGYDVHWYQQLPGTAPKLLIYGDTHRPSGVPDRFSGSKSGTSASLVIAGLQAEDEADYYCQSYDTVRLHHVFGGGTKLTVL
notes: IgG1 with Fc triple mutant 234F, 235E, 331S (EU index)
B3: the “Mean IC50, whole blood assay, IL-1beta induced release of IL-6” value in assay [5] came out at 311 µM. In assay [6], this molecule yielded an equilibrium dissociation constant (Kd) of 3.05 pM.

B4: Antibody 4 scFv (scFv, V domains shown)
VH: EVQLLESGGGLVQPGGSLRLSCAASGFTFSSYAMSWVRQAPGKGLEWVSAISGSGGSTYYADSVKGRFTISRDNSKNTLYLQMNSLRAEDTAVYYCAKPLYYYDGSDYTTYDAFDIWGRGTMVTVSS
VL: QSVLTQPPSVSGAPGQRVTISCTGSSSNIGAGYDVHWYQQLPGTAPKLLIYGDTHRPSGVPDRFSGSKSGTSASLVIAGLQAEDEADYYCQSYDTSLSGSLFGGGTKLTVL
notes: Tested as purified scFv; also called KENB026 or KENB061 (parent, not resolved)
With B4, the IC50 in assay [7] was 22.5 nM.

B5: Antibody 1 scFv (scFv, V domains shown)
VH: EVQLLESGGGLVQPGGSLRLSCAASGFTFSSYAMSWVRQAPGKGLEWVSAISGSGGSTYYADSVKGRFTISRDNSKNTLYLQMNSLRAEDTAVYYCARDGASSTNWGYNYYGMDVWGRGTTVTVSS
VL: QAVLTQPSSASGTPGQRVTISCSGSSSNIGSNYVFWYQQFPGTAPQLLVKWNNQRPSGVPDRFSGSKSGTSASLAISGLRSEDEADYYCAAWDDSLSGLVFGGGTKLTVL
notes: as for B4
Consider B5, for which the IC50 in assay [8] is approximately 225 nM.
